# Source: US20070231324A1
# Target: CD20 (human) (UniProt P11836)
# Experiment: FACS staining of Ramos, Daudi, Raji and BJAB B lymphoma cells
# Chain of UniProt P11836 (P11836 whole entry): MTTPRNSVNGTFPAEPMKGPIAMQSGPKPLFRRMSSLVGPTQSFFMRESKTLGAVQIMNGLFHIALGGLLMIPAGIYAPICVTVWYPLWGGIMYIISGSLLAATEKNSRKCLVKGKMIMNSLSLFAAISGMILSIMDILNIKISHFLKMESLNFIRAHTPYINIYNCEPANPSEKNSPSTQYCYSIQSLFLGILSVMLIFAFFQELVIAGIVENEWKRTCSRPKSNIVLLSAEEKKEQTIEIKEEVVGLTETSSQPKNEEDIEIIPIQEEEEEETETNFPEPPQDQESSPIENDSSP
substance,measurement,value
"RITUXAN® (rituximab), monoclonal antibody specific for CD20",mean fluorescence shift,5 to 15 units
